# Assay results published in US20220153796A1.
# B1: … (peptide)
# peptide: RELENCFQIQ
# B2: … (peptide)
# peptide: AELDKLTSV
# B3: … (peptide)
# peptide: GEVSGLTKDF
# B4: … (peptide)
# peptide: SDMVRFHLF
# B5: … (peptide)
# peptide: QENSYQSRL
# B6: … (peptide)
# peptide: EEIERFFKL
# B7: … (peptide)
# peptide: AEIQPQTQV
# B8: … (peptide)
# peptide: AEEEIMKKI
# B9: … (peptide)
# peptide: SEIEDSTKQVF
# B10: … (peptide)
# peptide: AEVPTGVII
# B11: DEVNFLVY (peptide)
# peptide: DEVNFLVY
# B12: … (peptide)
# peptide: SENLFFASF
# B13: AENLFRAF (peptide)
# peptide: AENLFRAF
# B14: … (peptide)
# peptide: SEMNVNMKY
# B15: YEDLSQKY (peptide)
# peptide: YEDLSQKY
# B16: … (peptide)
# peptide: SEIEQEIGSL
# B17: … (peptide)
# peptide: DELFSIALY
# B18: … (peptide)
# peptide: AETPIQNVI
# B19: … (peptide)
# peptide: TEGIIMKDF
# B20: … (peptide)
# peptide: GEFPVRVQV
# B21: … (peptide)
# peptide: KEADIHFLI
# B22: … (peptide)
# peptide: RELQHEHSL
# B23: … (peptide)
# peptide: GELALKKKI
# B24: … (peptide)
# peptide: EENDQSTHKW
# B25: EEGRVYLF (peptide)
# peptide: EEGRVYLF
# B26: … (peptide)
# peptide: GEVHPSEMI
# B27: … (peptide)
# peptide: MEMQKSPVF
# B28: … (peptide)
# peptide: AEVGFVRFF
# B29: … (peptide)
# peptide: SEKGVIQVY
# B30: … (peptide)
# peptide: TEREWADEW
# Biological target: HLA-B*44 (human)
# Experiment: UV peptide exchange ELISA
row,peptide exchange yield [%],Binder
1,50 to 75,B1
2,50 to 75,B2
3,20 to 50,B3
4,20 to 50,B4
5,50 to 75,B5
6,50 to 75,B6
7,50 to 75,B7
8,20 to 50,B8
9,50 to 75,B9
10,50 to 75,B10
11,10 to 20,B11
12,> 75,B12
13,20 to 50,B13
14,> 75,B14
15,20 to 50,B15
16,50 to 75,B16
17,> 75,B17
18,50 to 75,B18
19,20 to 50,B19
20,20 to 50,B20
21,> 75,B21
22,50 to 75,B22
23,20 to 50,B23
24,50 to 75,B24
25,50 to 75,B25
26,50 to 75,B26
27,50 to 75,B27
28,> 75,B28
29,50 to 75,B29
30,50 to 75,B30
